What all share (test): BLI
Experiment [1] addresses T1, D614G-Hexapro (WT) spike ectodomain (SARS-CoV-2 Wuhan-Hu-1 D614G, D614G). Conditions: both partners purified.
For experiment [2], the target named is T2, Omicron BA.1 spike protein ectodomain (BLI) (SARS-CoV-2 Omicron BA.1, strain). Conditions: both partners purified.
Experiment [3] concerns the target Omicron BA.2 spike protein ectodomain (BLI) (SARS-CoV-2, Omicron BA.2, strain). Conditions: both partners purified.
Experiment [4] addresses Omicron BA.2.12 spike protein ectodomain (BLI) (SARS-CoV-2 Omicron BA.2.12.1, strain). Conditions: both partners purified.
Experiment [5] deals with Omicron BA.5 spike protein ectodomain (BLI) (SARS-CoV-2 Omicron BA.5 (BA.4/5 spike), strain). Conditions: both partners purified.
Experiment [6] concerns the target T1, D614G-Hexapro (WT) spike ectodomain.
The target in experiment [7] is T2, Omicron BA.1 spike protein ectodomain ….

Like-named read-outs stand apart in the source and are kept apart here.

B1: N3-1_M (antibody, V domains shown)
VH: QVQLQQWGPGLVNPSETLSLTCSVSGGSFATENYYWSWIRQHPGEGLEWIGNIYFSGNTYYNPSLNNRFTISFDTSKNHLSLKLPSVTAADTAVYYCARGTIYFDMSGYRRVDPFHIWGQGTMVIVSS
VL: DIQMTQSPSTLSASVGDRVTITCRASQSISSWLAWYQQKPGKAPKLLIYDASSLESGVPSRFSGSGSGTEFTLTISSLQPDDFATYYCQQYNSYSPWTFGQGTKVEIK
notes: IgG1
With B1, the Kd was 0.00422 µM in experiment [1]; 0.428 µM in experiment [2]; 0.178 µM in experiment [3]; 0.028 µM in experiment [4]; 0.172 µM in experiment [5]; 4.42 µM in experiment [6]. The affinity in experiment [7], expressed as Kd, was 0.0332 µM. Besides, the koff in experiment [1] amounted to 0.000278 s⁻¹; in experiment [2], 0.00368 s⁻¹; in experiment [3] it was 0.00245 s⁻¹; in experiment [4], 0.000621 s⁻¹; in experiment [5] it was 0.00253 s⁻¹; in experiment [6] it was 0.00151 s⁻¹. The same molecule returned an off-rate constant (koff) in experiment [7] of 0.00105 s⁻¹. Further, the kon amounted to 65900 M⁻¹ s⁻¹ in experiment [1]; 8590 M⁻¹ s⁻¹ in experiment [2]; 13800 M⁻¹ s⁻¹ in experiment [3]; 22200 M⁻¹ s⁻¹ in experiment [4]; 14700 M⁻¹ s⁻¹ in experiment [5]; 342 M⁻¹ s⁻¹ in experiment [6]. The molecule also came in with an on-rate constant (kon) in experiment [7] of 31700 M⁻¹ s⁻¹.

B2: N3-1_Q (antibody, V domains shown)
VH: QVQLQQWGPGLVNPSETLSLTCSVSGGSFATENYYWSWIRQHPGEGLEWIGNIYFSGNTYYNPSLNNRFTISFDTSKNHLSLKLPSVTAADTAVYYCARGTIYFDQSGYRRVDPFHIWGQGTMVIVSS
VL: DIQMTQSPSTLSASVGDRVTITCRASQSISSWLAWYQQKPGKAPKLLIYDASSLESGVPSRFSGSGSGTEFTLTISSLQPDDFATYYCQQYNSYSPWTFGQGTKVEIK
notes: IgG1
For the molecule B2, the association rate constant (kon) came to 1000 M⁻¹ s⁻¹ in experiment [1]; 3120 M⁻¹ s⁻¹ in experiment [2]; 8360 M⁻¹ s⁻¹ in experiment [3]; 11500 M⁻¹ s⁻¹ in experiment [4]; 8640 M⁻¹ s⁻¹ in experiment [5]. The dissociation constant (Kd) came out at 4.8 µM in experiment [2], 0.483 µM in experiment [3], 0.291 µM in experiment [4] and 0.771 µM in experiment [5]. Further, the koff is 0.015 s⁻¹ in experiment [2], 0.00403 s⁻¹ in experiment [3], 0.00336 s⁻¹ in experiment [4] and 0.00666 s⁻¹ in experiment [5].

B3: N3-1_V (antibody, V domains shown)
VH: QVQLQQWGPGLVNPSETLSLTCSVSGGSFATENYYWSWIRQHPGEGLEWIGNIYFSGNTYYNPSLNNRFTISFDTSKNHLSLKLPSVTAADTAVYYCARGTIYFDVSGYRRVDPFHIWGQGTMVIVSS
VL: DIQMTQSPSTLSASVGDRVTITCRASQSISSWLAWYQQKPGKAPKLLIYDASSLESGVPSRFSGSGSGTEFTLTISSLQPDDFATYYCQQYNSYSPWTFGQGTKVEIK
notes: IgG1
Turning to B3, the Kd in experiment [1] came out at 0.00378 µM; in experiment [2], 1.34 µM; in experiment [3] it was 0.704 µM; in experiment [4] it was 0.421 µM; in experiment [5] it was 1.47 µM. Besides, the koff in experiment [1] was 0.00023 s⁻¹; in experiment [2], 0.00726 s⁻¹; in experiment [3], 0.00681 s⁻¹; in experiment [4], 0.00542 s⁻¹; in experiment [5], 0.0163 s⁻¹. Further, the kon in experiment [1] turned out to be 60900 M⁻¹ s⁻¹; in experiment [2], 5410 M⁻¹ s⁻¹; in experiment [3], 9670 M⁻¹ s⁻¹; in experiment [4] it was 12900 M⁻¹ s⁻¹; in experiment [5], 11100 M⁻¹ s⁻¹.

B4: 0349-MN3_T65P (antibody, V domains shown)
VH: QVQLQQWGPGLVNPSETLSLTCSVSGGSFATENYYWSWIRQHPGEGLEWIGNIYFSGNPYYNPSLNNRFTISFDTSKNHLSLKLPSVTAADTAVYYCARGTIYFDMSGYRRVDPFHIWGQGTMVIVSS
VL: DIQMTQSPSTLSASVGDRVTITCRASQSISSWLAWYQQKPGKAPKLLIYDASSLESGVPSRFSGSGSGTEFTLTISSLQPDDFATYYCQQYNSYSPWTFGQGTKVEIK
notes: source: Expi293F, transfected
Take B4: in experiment [6], binding was put at a Kd of 0.00297 µM, the koff is 0.00117 s⁻¹ and the kon was found to be 392000 M⁻¹ s⁻¹. In experiment [7], this molecule returned a Kd of 8.26 µM, a dissociation rate constant (koff) of 0.00219 s⁻¹ and a kon of 265 M⁻¹ s⁻¹.

B5: 0381-YN3_T65H (antibody, V domains shown)
VH: QVQLQQWGPGLVNPSETLSLTCSVSGGSFATENYYWSWIRQHPGEGLEWIGNIYFSGNHYYNPSLNNRFTISFDTSKNHLSLKLPSVTAADTAVYYCARGTIYFDYSGYRRVDPFHIWGQGTMVIVSS
VL: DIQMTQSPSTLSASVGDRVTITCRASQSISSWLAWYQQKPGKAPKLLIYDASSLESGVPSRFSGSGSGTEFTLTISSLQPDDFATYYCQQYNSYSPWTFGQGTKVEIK
notes: source: Expi293F, transfected
In experiment [6], B5 returned a Kd of 0.663 µM, a dissociation rate constant (koff) of 0.00016 s⁻¹ and an on-rate (kon) of 242 M⁻¹ s⁻¹. Also, in experiment [7], the Kd was found to be 8.04 µM, the dissociation rate constant (koff) was 0.00217 s⁻¹ and the kon was determined as 269 M⁻¹ s⁻¹.

These data come from article PMC10713552 (Communications Biology, 2023).
